These results are taken from article PMC5518211.

Assay [1] has as its target Calmodulin labeled with Cyanine5 (not stated (human brain CaM or recombinant bovine CaM bought)). Put plainly: MST.
Assay [2] addresses Calmodulin (not stated (human brain CaM or recombinant bovine CaM bought)) (UniProt P0DP23). Nature of the assay: SPR. In general terms: In SPR one partner is held on a chip, and binding of the other changes the refractive index at the surface.

Full-length recombinant human neurogranin with a His-tag at the N-terminus, sequence (Q92686 whole entry): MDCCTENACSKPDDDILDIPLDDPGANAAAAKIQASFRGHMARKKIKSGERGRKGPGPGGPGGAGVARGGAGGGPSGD

One may read the Kd as a measure of binding affinity in units of concentration. Consider “Full-length recombinant human neurogranin with a His-tag at the N-terminus (from UniProt Q92686) (natural protein)”, for which the Kd in assay [1] was determined as 890 nM.

For “Peptide corresponding to the CaM-binding region of CaMKIIα (CaMKII 290-309) (from UniProt Q9UQM7 290-309)”, in assay [1], the Kd amounted to 190 nM.

As for “IQ-motif containing peptide of neurogranin (Ng 27-50) (from UniProt Q92686 27-50)”, in assay [2], the dissociation constant (Kd) was found to be 14000 nM.
